# Measurements as given in the supplement of paper PMC9112550, “Optimization of the antimicrobial peptide Bac7 by deep mutational scanning” (BMC Biology, 2022).
# System: Escherichia coli TOP10
# Experiment: shrunken log2 fold change of peptide-encoding DNA abundance (4.5 h post-induction vs induction); higher = less antimicrobial activity (less host growth inhibition)
# Conditions: time post-induction: 4.5 h; library: site-saturation at positions 5, 18, 19, 20
# 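Note: peptides expressed intracellularly from a pBAD plasmid library in pooled LB shake-flask culture, induced with 0.3% L-arabinose, DNA abundance read by NGS, three biological replicates, DESeq2 with apeglm shrinkage.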
row,Sequence,shrunken log2 fold change
1,RRIRNRPPRLPRPRPRPRHRPRP,0.202
2,RRIRGRPPRLPRPRPRPIWNPRP,0.37
3,RRIRHRPPRLPRPRPRPRFDPRP,-0.163
4,RRIRSRPPRLPRPRPRPHGWPRP,-0.107
5,RRIRCRPPRLPRPRPRPQWMPRP,-0.0314
6,RRIRFRPPRLPRPRPRPDKPPRP,0.0269
7,RRIRTRPPRLPRPRPRPRQFPRP,-0.0836
8,RRIRHRPPRLPRPRPRPPGQPRP,0.0303
9,RRIRFRPPRLPRPRPRPRFHPRP,-0.409
10,RRIRERPPRLPRPRPRPTPQPRP,0.246
11,RRIRQRPPRLPRPRPRPRWFPRP,0.0284
12,RRIRIRPPRLPRPRPRPPRPPRP,0.822
13,RRIRLRPPRLPRPRPRPMELPRP,-0.00973
14,RRIRCRPPRLPRPRPRPGEVPRP,0.212
15,RRIRARPPRLPRPRPRPLAYPRP,0.293
16,RRIRPRPPRLPRPRPRPFDQPRP,-0.295
17,RRIRKRPPRLPRPRPRPVQDPRP,0.295
18,RRIRKRPPRLPRPRPRPSRGPRP,0.741
19,RRIRGRPPRLPRPRPRPTMEPRP,0.751
20,RRIRTRPPRLPRPRPRPTKDPRP,-0.244
21,RRIRDRPPRLPRPRPRPAFEPRP,0.906
22,RRIRLRPPRLPRPRPRPHPNPRP,-0.247
23,RRIRGRPPRLPRPRPRPGFDPRP,0.97
24,RRIRERPPRLPRPRPRPSNRPRP,-0.209
25,RRIRTRPPRLPRPRPRPLCRPRP,-0.13

row,Sequence,shrunken log2 fold change
1,RRIRCRPPRLPRPRPRPFHRPRP,0.00717
2,RRIRTRPPRLPRPRPRPANPPRP,0.0504
3,RRIRIRPPRLPRPRPRPIFSPRP,-0.181
4,RRIRFRPPRLPRPRPRPKFEPRP,-0.081
5,RRIRSRPPRLPRPRPRPQCMPRP,-0.584
6,RRIRDRPPRLPRPRPRPVVKPRP,0.0734
7,RRIRFRPPRLPRPRPRPECNPRP,0.0687
8,RRIRVRPPRLPRPRPRPYDNPRP,-0.199
9,RRIRNRPPRLPRPRPRPKYQPRP,-0.0997
10,RRIRSRPPRLPRPRPRPFLPPRP,-0.305
11,RRIRGRPPRLPRPRPRPGSVPRP,0.484
12,RRIRSRPPRLPRPRPRPNHLPRP,-0.814
13,RRIRFRPPRLPRPRPRPPIGPRP,-0.229
14,RRIRLRPPRLPRPRPRPSYQPRP,-0.255
15,RRIRHRPPRLPRPRPRPFGTPRP,-0.213
16,RRIRCRPPRLPRPRPRPLQPPRP,-0.0133
17,RRIRDRPPRLPRPRPRPLHEPRP,-0.129
18,RRIRSRPPRLPRPRPRPYMQPRP,-0.145
19,RRIRMRPPRLPRPRPRPDFYPRP,0.06
20,RRIRARPPRLPRPRPRPCITPRP,0.178
21,RRIRSRPPRLPRPRPRPCSQPRP,-0.214
22,RRIRIRPPRLPRPRPRPQQYPRP,-0.808
23,RRIRVRPPRLPRPRPRPFRTPRP,-0.0962
24,RRIRHRPPRLPRPRPRPTNTPRP,-0.384
25,RRIRYRPPRLPRPRPRPPDMPRP,-0.625

row,Sequence,shrunken log2 fold change
1,RRIRGRPPRLPRPRPRPAVSPRP,0.573
2,RRIRYRPPRLPRPRPRPTDRPRP,-0.144
3,RRIRYRPPRLPRPRPRPNLSPRP,-0.0996
4,RRIRDRPPRLPRPRPRPIHNPRP,-0.06
5,RRIRFRPPRLPRPRPRPIQLPRP,-0.336
6,RRIRMRPPRLPRPRPRPNMCPRP,0.0492
7,RRIRPRPPRLPRPRPRPWYAPRP,-0.107
8,RRIRLRPPRLPRPRPRPKPSPRP,0.432
9,RRIRIRPPRLPRPRPRPPNKPRP,-0.36
10,RRIRVRPPRLPRPRPRPKIGPRP,-0.0842
11,RRIRNRPPRLPRPRPRPYWIPRP,-1.71
12,RRIRNRPPRLPRPRPRPYEQPRP,-0.54
13,RRIRRRPPRLPRPRPRPMYFPRP,-0.21
14,RRIRSRPPRLPRPRPRPFWSPRP,-0.183
15,RRIRGRPPRLPRPRPRPYVCPRP,-0.00206
16,RRIRYRPPRLPRPRPRPFNSPRP,-0.169
17,RRIRIRPPRLPRPRPRPRRNPRP,-0.0717
18,RRIRWRPPRLPRPRPRPPCIPRP,0.0939
19,RRIRKRPPRLPRPRPRPVTNPRP,-0.0569
20,RRIRARPPRLPRPRPRPDSRPRP,0.12
21,RRIRARPPRLPRPRPRPAIRPRP,0.422
22,RRIRDRPPRLPRPRPRPSAWPRP,0.123
23,RRIRIRPPRLPRPRPRPVYHPRP,-0.262
24,RRIRFRPPRLPRPRPRPLNMPRP,-0.777
25,RRIRNRPPRLPRPRPRPHDWPRP,0.263

row,Sequence,shrunken log2 fold change
1,RRIRERPPRLPRPRPRPSGSPRP,0.0459
2,RRIRWRPPRLPRPRPRPLKYPRP,-0.384
3,RRIRMRPPRLPRPRPRPEPWPRP,1.3
4,RRIRCRPPRLPRPRPRPVPEPRP,0.316
5,RRIRARPPRLPRPRPRPNTLPRP,-0.202
6,RRIRFRPPRLPRPRPRPCIKPRP,-0.0867
7,RRIRLRPPRLPRPRPRPHWVPRP,-0.189
8,RRIRLRPPRLPRPRPRPQMFPRP,-0.427
9,RRIRHRPPRLPRPRPRPKKGPRP,-0.0679
10,RRIRFRPPRLPRPRPRPDRDPRP,-0.119
11,RRIRARPPRLPRPRPRPHTDPRP,-0.111
12,RRIRHRPPRLPRPRPRPPWCPRP,0.0341
13,RRIRVRPPRLPRPRPRPLFTPRP,-0.448
14,RRIRVRPPRLPRPRPRPQVTPRP,-0.425
15,RRIRGRPPRLPRPRPRPTSPPRP,0.491
16,RRIRTRPPRLPRPRPRPAQAPRP,-0.0199
17,RRIRSRPPRLPRPRPRPHDEPRP,0.0683
18,RRIRHRPPRLPRPRPRPHLFPRP,-0.154
19,RRIRKRPPRLPRPRPRPNADPRP,0.0182
20,RRIRWRPPRLPRPRPRPDWYPRP,-0.268
21,RRIRCRPPRLPRPRPRPWGQPRP,-0.00973
22,RRIRERPPRLPRPRPRPHSGPRP,-0.365
23,RRIRMRPPRLPRPRPRPAGLPRP,0.47
24,RRIRYRPPRLPRPRPRPHMVPRP,-0.126
25,RRIRERPPRLPRPRPRPGNCPRP,0.13

row,Sequence,shrunken log2 fold change
1,RRIRGRPPRLPRPRPRPPNHPRP,0.942
2,RRIRYRPPRLPRPRPRPIFNPRP,-0.89
3,RRIRFRPPRLPRPRPRPMQYPRP,-0.683
4,RRIRYRPPRLPRPRPRPYRRPRP,-0.00141
5,RRIRTRPPRLPRPRPRPRKNPRP,0.136
6,RRIRWRPPRLPRPRPRPRGAPRP,0.586
7,RRIRWRPPRLPRPRPRPCGVPRP,0.0164
8,RRIRTRPPRLPRPRPRPAWKPRP,0.0317
9,RRIRYRPPRLPRPRPRPPNGPRP,3.11
10,RRIRRRPPRLPRPRPRPFWGPRP,0.463
11,RRIRGRPPRLPRPRPRPQCQPRP,0.316
12,RRIRTRPPRLPRPRPRPRQWPRP,-0.054
13,RRIRGRPPRLPRPRPRPEWQPRP,0.783
14,RRIRRRPPRLPRPRPRPCMFPRP,-0.0745
15,RRIRARPPRLPRPRPRPNTRPRP,0.12
16,RRIRLRPPRLPRPRPRPMDLPRP,-0.171
17,RRIRRRPPRLPRPRPRPGPMPRP,0.353
18,RRIRLRPPRLPRPRPRPMPLPRP,-0.043
19,RRIRERPPRLPRPRPRPNNEPRP,-0.525
20,RRIRERPPRLPRPRPRPAAHPRP,-0.128
21,RRIRGRPPRLPRPRPRPTFSPRP,0.162
22,RRIRDRPPRLPRPRPRPLTWPRP,0.24
23,RRIRNRPPRLPRPRPRPNRFPRP,0.0252
24,RRIRKRPPRLPRPRPRPGKGPRP,-0.0491
25,RRIRTRPPRLPRPRPRPEWNPRP,-0.05
